These results are taken from PMC10131064 (The Journal of Biological Chemistry, 2023).

Holding throughout (assay): SPR
A general note: Surface plasmon resonance follows binding to a sensor surface in real time, without labels.

In assay [1] the target is T1, human MDGA1 V314D soluble ectodomain, (His)6-tagged (human, UniProt Q8NFP4-1 22-920, V314D).
T1 sequence: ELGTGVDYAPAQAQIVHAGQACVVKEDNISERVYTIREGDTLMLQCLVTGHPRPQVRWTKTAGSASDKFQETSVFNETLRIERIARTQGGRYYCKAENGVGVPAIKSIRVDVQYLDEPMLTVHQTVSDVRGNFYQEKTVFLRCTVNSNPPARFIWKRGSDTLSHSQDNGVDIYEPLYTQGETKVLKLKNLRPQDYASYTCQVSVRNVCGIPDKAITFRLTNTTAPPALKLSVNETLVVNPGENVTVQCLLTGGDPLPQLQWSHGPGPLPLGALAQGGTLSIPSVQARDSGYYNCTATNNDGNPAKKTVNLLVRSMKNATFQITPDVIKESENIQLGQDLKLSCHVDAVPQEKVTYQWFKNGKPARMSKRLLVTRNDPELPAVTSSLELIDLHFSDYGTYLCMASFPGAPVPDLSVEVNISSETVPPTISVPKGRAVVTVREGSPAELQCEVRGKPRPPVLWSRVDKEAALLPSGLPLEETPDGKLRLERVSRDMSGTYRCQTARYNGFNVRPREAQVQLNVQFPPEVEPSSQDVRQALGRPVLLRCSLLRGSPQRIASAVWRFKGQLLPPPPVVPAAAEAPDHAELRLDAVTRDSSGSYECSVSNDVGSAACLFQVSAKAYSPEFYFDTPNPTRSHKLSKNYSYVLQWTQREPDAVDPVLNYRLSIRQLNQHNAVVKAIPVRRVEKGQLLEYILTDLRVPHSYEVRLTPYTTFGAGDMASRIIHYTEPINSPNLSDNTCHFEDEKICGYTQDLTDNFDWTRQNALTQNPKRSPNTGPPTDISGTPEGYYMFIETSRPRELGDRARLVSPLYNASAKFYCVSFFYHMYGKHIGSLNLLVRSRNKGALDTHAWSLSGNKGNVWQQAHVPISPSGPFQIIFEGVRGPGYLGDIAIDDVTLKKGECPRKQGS

For assay [2], the target named is T2, human MDGA1 T135C/N313C soluble ectodomain, (His)6-tagged (human, UniProt Q8NFP4-1 22-920, T135C | N313C).
T2 sequence: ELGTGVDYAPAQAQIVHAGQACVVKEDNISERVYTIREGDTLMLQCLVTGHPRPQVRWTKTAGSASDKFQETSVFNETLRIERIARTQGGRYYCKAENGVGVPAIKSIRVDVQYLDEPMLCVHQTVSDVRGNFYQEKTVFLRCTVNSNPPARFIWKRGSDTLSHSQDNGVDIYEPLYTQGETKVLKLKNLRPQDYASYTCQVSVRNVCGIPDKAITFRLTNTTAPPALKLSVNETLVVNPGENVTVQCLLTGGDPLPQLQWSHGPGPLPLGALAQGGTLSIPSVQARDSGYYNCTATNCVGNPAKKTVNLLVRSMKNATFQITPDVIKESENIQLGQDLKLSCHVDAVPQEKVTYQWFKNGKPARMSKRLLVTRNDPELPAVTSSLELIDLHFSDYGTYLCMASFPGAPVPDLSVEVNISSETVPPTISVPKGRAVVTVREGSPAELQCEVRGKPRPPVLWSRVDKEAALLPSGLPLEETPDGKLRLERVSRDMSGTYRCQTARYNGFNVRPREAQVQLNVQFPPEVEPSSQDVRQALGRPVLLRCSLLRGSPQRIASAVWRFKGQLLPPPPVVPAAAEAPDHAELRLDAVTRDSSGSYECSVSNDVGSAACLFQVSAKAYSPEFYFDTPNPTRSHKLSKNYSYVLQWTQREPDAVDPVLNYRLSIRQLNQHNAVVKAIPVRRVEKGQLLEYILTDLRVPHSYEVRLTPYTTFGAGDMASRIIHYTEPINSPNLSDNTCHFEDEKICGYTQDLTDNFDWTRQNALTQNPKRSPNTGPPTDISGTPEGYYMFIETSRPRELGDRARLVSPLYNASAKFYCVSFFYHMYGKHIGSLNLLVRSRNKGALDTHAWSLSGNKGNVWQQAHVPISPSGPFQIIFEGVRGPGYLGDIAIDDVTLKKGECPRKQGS

Assay [3] addresses T3, human MDGA1 I336D soluble ectodomain, (His)6-tagged (human, UniProt Q8NFP4-1 22-920, I336D).
T3 sequence: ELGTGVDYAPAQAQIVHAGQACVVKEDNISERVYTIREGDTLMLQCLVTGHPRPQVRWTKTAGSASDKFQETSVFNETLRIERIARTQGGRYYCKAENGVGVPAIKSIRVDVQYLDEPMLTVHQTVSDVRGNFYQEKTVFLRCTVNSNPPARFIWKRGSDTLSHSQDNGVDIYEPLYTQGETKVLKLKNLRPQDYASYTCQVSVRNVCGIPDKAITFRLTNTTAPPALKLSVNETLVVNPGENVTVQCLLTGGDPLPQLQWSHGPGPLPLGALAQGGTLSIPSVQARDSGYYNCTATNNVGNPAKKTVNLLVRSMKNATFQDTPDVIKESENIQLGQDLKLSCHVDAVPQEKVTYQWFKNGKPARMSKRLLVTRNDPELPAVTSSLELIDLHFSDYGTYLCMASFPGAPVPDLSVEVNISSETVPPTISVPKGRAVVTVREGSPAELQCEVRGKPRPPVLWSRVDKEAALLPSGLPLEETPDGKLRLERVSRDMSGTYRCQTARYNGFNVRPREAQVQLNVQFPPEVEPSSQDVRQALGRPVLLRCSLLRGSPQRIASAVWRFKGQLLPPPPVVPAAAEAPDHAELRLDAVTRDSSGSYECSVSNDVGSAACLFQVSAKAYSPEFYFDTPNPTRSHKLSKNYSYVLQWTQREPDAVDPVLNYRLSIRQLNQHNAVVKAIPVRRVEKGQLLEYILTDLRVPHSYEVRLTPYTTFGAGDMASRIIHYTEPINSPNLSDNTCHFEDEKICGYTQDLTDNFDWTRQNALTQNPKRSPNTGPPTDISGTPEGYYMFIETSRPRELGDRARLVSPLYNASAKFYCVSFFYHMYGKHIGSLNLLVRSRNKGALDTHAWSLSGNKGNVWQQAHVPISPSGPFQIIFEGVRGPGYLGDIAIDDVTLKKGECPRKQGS

Assay [4] addresses T4, human MDGA1 WT soluble ectodomain (residues 22-920, lacking the GPI anchor region), (His)6-tagged (human, UniProt Q8NFP4-1 22-920).
T4 sequence: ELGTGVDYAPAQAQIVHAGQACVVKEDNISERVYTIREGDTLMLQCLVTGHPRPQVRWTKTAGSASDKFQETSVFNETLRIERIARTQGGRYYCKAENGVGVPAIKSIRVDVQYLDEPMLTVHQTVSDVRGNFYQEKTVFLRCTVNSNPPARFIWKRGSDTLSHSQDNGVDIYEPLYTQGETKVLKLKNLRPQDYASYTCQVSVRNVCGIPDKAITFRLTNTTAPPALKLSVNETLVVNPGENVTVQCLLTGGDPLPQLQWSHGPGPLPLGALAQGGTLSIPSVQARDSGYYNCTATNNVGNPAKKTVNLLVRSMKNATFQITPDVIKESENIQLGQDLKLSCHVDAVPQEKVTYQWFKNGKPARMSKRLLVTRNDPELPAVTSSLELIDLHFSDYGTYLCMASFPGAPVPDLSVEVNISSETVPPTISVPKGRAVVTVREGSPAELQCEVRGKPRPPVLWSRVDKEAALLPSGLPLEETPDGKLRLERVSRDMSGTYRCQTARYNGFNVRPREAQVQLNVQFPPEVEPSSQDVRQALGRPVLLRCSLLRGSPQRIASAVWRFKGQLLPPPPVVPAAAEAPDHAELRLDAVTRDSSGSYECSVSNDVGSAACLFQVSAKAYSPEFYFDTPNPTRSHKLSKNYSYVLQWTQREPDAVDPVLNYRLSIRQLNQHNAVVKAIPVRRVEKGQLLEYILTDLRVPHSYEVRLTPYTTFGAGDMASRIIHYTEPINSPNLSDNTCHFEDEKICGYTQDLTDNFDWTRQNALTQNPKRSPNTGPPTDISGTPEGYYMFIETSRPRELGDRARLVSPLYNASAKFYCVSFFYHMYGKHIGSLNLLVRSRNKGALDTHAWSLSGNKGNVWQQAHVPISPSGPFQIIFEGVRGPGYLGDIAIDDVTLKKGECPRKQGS

B1: extracellular domain of rat NLGN2 (residues V43-H612) with splice insert A (domain or fragment, UniProt Q62888-1 43-612, looked up)
chain: VVNTAYGRVRGVRRELNNEILGPVVQFLGVPYATPPLGARRFQPPEAPASWPGVRNATTLPPACPQNLHGALPAIMLPVWFTDNLEAAATYVQNQSEDCLYLNLYVPTEDGPLTKKRDEATLNPPDTDIRDSGKKPVMLFLHGGSYMEGTGNMFDGSVLAAYGNVIVATLNYRLGVLGFLSTGDQAAKGNYGLLDQIQALRWLSENIAHFGGDPERITIFGSGAGASCVNLLILSHHSEGLFQKAIAQSGTAISSWSVNYQPLKYTRLLAAKVGCDREDSTEAVECLRRKSSRELVDQDVQPARYHIAFGPVVDGDVVPDDPEILMQQGEFLNYDMLIGVNQGEGLKFVEDSAESEDGVSASAFDFTVSNFVDNLYGYPEGKDVLRETIKFMYTDWADRDNGEMRRKTLLALFTDHQWVAPAVATAKLHADYQSPVYFYTFYHHCQAEGRPEWADAAHGDELPYVFGVPMVGATDLFPCNFSKNDVMLSAVVMTYWTNFAKTGDPNQPVPQDTKFIHTKPNRFEEVVWSKFNSKEKQYLHIGLKPRVRDNYRANKVAFWLELVPHLHNLH
For the molecule B1, the binding result in assay [1], in assay [2] and in assay [3] was “binds” throughout. In addition, the dissociation constant Kd (as a rule, the concentration at which binding is half-saturated) in assay [4] was 3.4 nM.
